{"source": "the nanobody polyreactivity screen of Harvey et al. (2022)"}
{"assay": "yeast display, Sf9 membrane polyspecificity reagent, FACS + sequencing; frameworks hold sequencing errors", "summary_of_the_method": "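Polyreactivity labels are assigned by the sorting gate from which each nanobody was recovered. The gates were low and high (top ~1%), set on anti-HA fluorescence for expression and streptavidin fluorescence for reagent binding. Before sorting, galactose-induced (36–48 hours) yeast display cells were stained for 1 hour at 4 °C with 10% biotinylated, detergent-solubilized Sf9 membrane reagent.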"}
{"sequence": "QVQLVESAVCLVQAGVSLRLSCAASGIIFDYNAMGWYRQAPGKDREVVAAITSTDNTNYADSVKGRFTISRDNAKNTVYLQMNSLKPEDTAVYYCNTDYWLSVVYAMDYWGQGTQVTVSS", "polyreactivity (PSR sort gate)": "low polyreactivity"}
{"sequence": "QVQLVESCGGIDQAGGSLRLTCAATGRIFNSYPMGWYRQAPGKERELVAAISRNGGITYYADSVKARFTISRDNAKITVYLQMNILKQEDTAVYYCNADSSRRLYSSEYWGEGTQVTVSS", "polyreactivity (PSR sort gate)": "high polyreactivity"}
{"sequence": "QVQLVESCGGLVHAGGSLRLSCAATGFTIAENVKGWYRQSPGKERELVAAIDYSDGITYYADSVKGRFTISRDNAKNTVYLQMNSLKPEDTAVYYCATQYLIQTKDYSWGQGTQVTVSS", "polyreactivity (PSR sort gate)": "high polyreactivity"}
{"sequence": "QVQLVESCGGLVQAGCSLRLSCAASGSIVAWYTMGWYRQAPGKERELVAGITASGGSTYYADSVKGRFTISRDNAKNTVYLQMNILKPEDTAVYYCAATNPFRYRRGGYWGQGTQVTVSS", "polyreactivity (PSR sort gate)": "high polyreactivity"}
{"sequence": "QVQLVESCGGLVQAGGSIRLRCAATGSIIYVNPMGWYRQAPWKEREMVAAITGGASTNYADSVKGRFTISRDNAKNTVYLQMNLLKPEDTAVYYCAVDPVGHATRVWTYQYDYWGQGNQVTVSS", "polyreactivity (PSR sort gate)": "low polyreactivity"}
{"sequence": "QVQLVESCGGLVQAGGSLRLSCAASGFIFQPYAMGWYRQAPGTERELVAAITSRGGRTYYADSVKGRFTISRDNAKNTVYLQMNSLKPEDTAVYSCNAVIYACEYYYWGQGTQVTVSS", "polyreactivity (PSR sort gate)": "low polyreactivity"}
{"sequence": "QVQLVESCGGLVQAGGSLRLSCAASGGIFGYYAMGWYRQAPGKEREFVAAITLSGGRSYYADSVKGRFTISRDNAKNTVYLQMNSLKPEDTAVYYCNAYPYYLVRNMDSWGQGTQVTVSS", "polyreactivity (PSR sort gate)": "high polyreactivity"}
{"sequence": "QVQLVESCGGLVQAGGSLRLSCAASGRTFRDNAMGWYRQAPGKERELVAAIDIDSSTYYADSVEGRFTISRDNAKNTVYLQMNSLKPEDTAVYYCAAESYHDGKGFPDYEYWGQGTQVTVSS", "polyreactivity (PSR sort gate)": "low polyreactivity"}
{"sequence": "QVQLVESCGGLVQAGGSLRLSCAASGSIFPPYAMGWYRQAPGKERELVATITIRGGSTYYADSVKGRFTISRDNAKNTVYLQMNSLKPEDTAVYYCAADYTKYYRRYYYWGQGTQVTVSS", "polyreactivity (PSR sort gate)": "high polyreactivity"}
{"sequence": "QVQLVESCGGLVQAGGSLRLSCAASGSIFYGNVMGWYRQAPGKERELVAAISSSGGSTYYADSVKGRFTISRDNEKNTVYLQMNRLKPEDSAVYYCAAYWWSRVVRGSRYDYWGQGTHVTVSS", "polyreactivity (PSR sort gate)": "low polyreactivity"}
{"sequence": "QVQLVESCGGLVQAGGSLRLSCAASGSTFAVNVMGWYRQAPGKERELDATITYRDGRTYYADSVKGRFTISRDNAKNTVYVQMNSLKPEVTALYYCAADWYTTYDYWGQGTQVTVSS", "polyreactivity (PSR sort gate)": "low polyreactivity"}
{"sequence": "QVQLVESCGGLVQAGGSLRLSCAASGSTFDGYAMGWYRQAPVKERELVAAISASGGSTYYADSVKGRFTISRDNAKNTVYLQMNSLKPEDTAVYYCNSEPFDLWAFYYCYVYGYYHWGQGTQVTVSS", "polyreactivity (PSR sort gate)": "high polyreactivity"}
{"sequence": "QVQLVESCGGLVQAGGSLRLSCAASGSTFTIYAMGWYRQAPGKERELVAVISSSGGSTYYADSVKGRFTISRDNAKNTVYLQMNSLKPEDTAVYYCAADTRYFGGYLTLYYWGQGTQVTVSS", "polyreactivity (PSR sort gate)": "low polyreactivity"}
{"sequence": "QVQLVESCGGLVQAGGSLRLSCAASGSTFTVNAMGGYRQAPGKERELVAAINWSGGSTYYADSVKGRFTISRDNAKNTVYFQMNSLKPEDTAVYYCNKDREPYGYWSFDYWGQGSQVTVSS", "polyreactivity (PSR sort gate)": "low polyreactivity"}
{"sequence": "QVQLVESCGGLVQAGGSLRLSCAASGSTFVHNAMGWNRQAPGKESELVAAITSRTGITYYADSLKGRFTISRDNAKNTFYLEMNSLKPEDTSVFYCAKRHVRTHRLQFDYWGQGTQVTVSS", "polyreactivity (PSR sort gate)": "high polyreactivity"}
{"sequence": "QVQLVESCGGLVQAGGSLRLSCADYGRTFGKYAMGWYRQSPGKERELVAAITYRGGTTYYEDSVKGRFTISRDNAKNTLYLQMNSLKPEDTAVYYCATAPGRRYDWGQGTQVTVSS", "polyreactivity (PSR sort gate)": "high polyreactivity"}
{"sequence": "QVQLVESCGGLVQAGGSLRLSCASSGRTIDSKAMGWYRQAPGKERELVAAISWSGGSTYYADSVKGRFTISRDNAKNTVYLQMNSLKPEDTAVYYCNRLGRHAPATRYGYWGQGTQVTVSS", "polyreactivity (PSR sort gate)": "high polyreactivity"}
{"sequence": "QVQLVESCGGLVQTGGSLRLICAASRSNFDYYAMGWYRQAPWKETELVATNSYDFSTSYADSVKVLFTISRDNAKNTVFLQMKSLKPVDTAVYYCATDAGLYLEDAYEGPEQEFDYWGQGTQVTVSS", "polyreactivity (PSR sort gate)": "low polyreactivity"}
{"sequence": "QVQLVESFGGLVQAGGSLRLICAGSGLTCYVYAMGWSRPAPGKERELVAAISQRGGSTYYADSVKGRFTISRDKAKNTVYLQMNSLKPEDTAVYYCAKYTVQYAFSHYDYWGQGTQVTVSS", "polyreactivity (PSR sort gate)": "high polyreactivity"}
{"sequence": "QVQLVESGAALVQAGGSLRLSCAASASTYVSYAMGWSRQAPGKEREFVAAITWRGDSTYYADSVKGRFTISRDNAKNTVYFQMNSLKPEDTAVDYCAADGRSWRYYSPYYYWGQGTQVTVSS", "polyreactivity (PSR sort gate)": "low polyreactivity"}
{"sequence": "QVQLVESGACLVQAGGSLRLSCAASGSIFGFYAMGWYRQAPGQERELVAGISYGDSSTYYADSVKGRFTISRDNAKNTVYLQMNSLKPEDTAVYYCAAGHRQKYNWGRYDYWGQGTQVTVSS", "polyreactivity (PSR sort gate)": "low polyreactivity"}
{"sequence": "QVQLVESGAGFVQAGGSLRLTCAASGRNLSWYAMGWYRQAPGKEREYVAAITSSGASTYYADSVKGRFTISRDNAKNTVYLQMNSLKPEDTAVYYSNAAWRRVWFNYWGQGTQVTVSS", "polyreactivity (PSR sort gate)": "high polyreactivity"}
{"sequence": "QVQLVESGAGIVQAGGSLRLSCAASGLTFANYVMGGYRQAPGKERELVAAISRSGGSTYYADSVKGRFTISRDNAKKTVNLQMNCLKPEDTAVYYCAAAAWDPKGSRYDSWGQGTQVSVSS", "polyreactivity (PSR sort gate)": "low polyreactivity"}
{"sequence": "QVQLVESGAGIVQAGGSLRLSCAASGSTFYSYTMGWYRQAPGKERELVAAITSTGGRTYYADSVKGRFTISRDNAKITVYLQMNSLKPEDTAVYYCRRPYLYGMYYWGQGTQVTVSS", "polyreactivity (PSR sort gate)": "high polyreactivity"}
{"sequence": "QVQLVESGAGLDQAGCSLRISCAASGRIFWFYTMGWYRQAPWKERELVAAISTSGGSTYYADSVKGRFTISRDNEKNTVYLQMNSLKPDDTAVYYCAAQNGYYPQHDYWGQGTQVTVSS", "polyreactivity (PSR sort gate)": "high polyreactivity"}
{"sequence": "QVQLVESGAGLDQAGGSLRLSSAASGNTFQYYAMGSYRQAAGKERELVASISYRGGRTYYADSVKGRFTISRDNAKYTVYLQMNSLKPADTAVYYCAKSKYTNVLYNYWGQGTQVTVSS", "polyreactivity (PSR sort gate)": "high polyreactivity"}
{"sequence": "QVQLVESGAGLFQAGGSLRLSCAASGFTFNYYAMGGYIHAPGKERELVAAISRRGGSTYYADSVKGRFTISRDNAKNNVYLQMKSLKPEDTAVYYCNAASLKFTSPVRFGYWGQGTQVTVSS", "polyreactivity (PSR sort gate)": "high polyreactivity"}
{"sequence": "QVQLVESGAGLFQAGGSLRLSCAASGFTFWWYAMGWYRQAPGKQRELVASISSGGSTNYADSVKGRFTISRDNANNTVYLQMNSLKQVDTAVFYCARRMLYSERYSARWQYVYWGQGTQVNVSS", "polyreactivity (PSR sort gate)": "high polyreactivity"}
{"sequence": "QVQLVESGAGLFQAGGSLRLSCAASGSTFVSYAMGWYRQAPGKEREFVAAITWSGGSTYYADSVKGRFTISRDNAKNTVYLQMNSLKPEDTAVYYCARPYRGSPRYYYWGQGTQVTVSS", "polyreactivity (PSR sort gate)": "high polyreactivity"}
{"sequence": "QVQLVESGAGLLQAGGSLRISCAASGLTFKIIAMGWYRQAPGKERELVAAISSGTSTNYADSVKGRFTISRDNAKITVYLQMNSLKPEDTAVYYCAARGFWGVAYRYYYWGQGTQVTLSS", "polyreactivity (PSR sort gate)": "high polyreactivity"}
{"sequence": "QVQLVESGAGLVQAGGILRLSCAASGRTFKVYAMGWDRQAPGKERELVAAISDRGGSTYDADSVKGRFTISRDYAKNTVYLQMNSLKPVDTAVYYCSAEYARSTWRAFPELDYWGQGTQVTVSS", "polyreactivity (PSR sort gate)": "low polyreactivity"}
{"sequence": "QVQLVESGAGLVQAGGRLRLSCAASGRIFDGYAMGWYRQAPGKERELVAAITASGGSTYYADSVKGRFTISRDNAKITVYLQMNSLKPEDTAVYYCAVDYSYWVEYWGQGTQVTVSS", "polyreactivity (PSR sort gate)": "high polyreactivity"}
{"sequence": "QVQLVESGAGLVQAGGRLRLSCGASGRIFGRNAMGLYRQGPGKERELVAAISYSGGSTYYADSVKGRFTISRDNAKNTVYLQMNSLKPEDTAVYYCAARYTRSGYYWGQGTQVTVSS", "polyreactivity (PSR sort gate)": "high polyreactivity"}
{"sequence": "QVQLVESGAGLVQAGGSHRLSCAASGRNFYWNARGWYRQAPGKEREFVAAISWSGGSTYADSVKGRFTISRDNAKNTVYLQMNSLKPEDTAVYYCAIRVSRSFRAYDYWGQGTQVTVSS", "polyreactivity (PSR sort gate)": "high polyreactivity"}
{"sequence": "QVQLVESGAGLVQAGGSILLICAASGLTFYKNAMGWYRQAPAKERELVAVISSSGGSTYYADSVKGRFTISRDNAKNTVYLQMNSLKPEDTAVYYCARDLFTEYRWGLLTYDYWGQGTQVTVSS", "polyreactivity (PSR sort gate)": "low polyreactivity"}
{"sequence": "QVQLVESGAGLVQAGGSLRLSCAANTKGSYRQAPGKETELVAAINTGSSTYYADSVKGRFTISRDNAKNTVYLQMNSLKPEDTSVYYCNASYPQYLEYRTRQYNYWVQGTQVTVSS", "polyreactivity (PSR sort gate)": "low polyreactivity"}
{"sequence": "QVQLVESGAGLVQAGGSLRLSCAASGFIFARYAMGWSRQAPGKERELVAAITRGGGSTYYADSVKGRFTISRDTAKNTVYLQMNSLKPEDTAVYYCAAENGALVTYGYWGQGTQVTVSS", "polyreactivity (PSR sort gate)": "high polyreactivity"}
{"sequence": "QVQLVESGAGLVQAGGSLRLSCAASGFSFQSYTMGWSRQAPGKERELVAAISRSGGRTYYADSVKGRFTISRDNAKNTVYLQMTSLKPEDTAVYYCAVDYRTRVDYWGQGTQLTVSS", "polyreactivity (PSR sort gate)": "high polyreactivity"}
{"sequence": "QVQLVESGAGLVQAGGSLRLSCAASGFTFAKYAMGWYRQAPGKERELVATIRRSDDNTYYADSVKGRFTISRDNAKNTVYLQMNSLKPEDTAVYYCATGYYALYSRKPYKYNYWGQGTQVTVSS", "polyreactivity (PSR sort gate)": "high polyreactivity"}
{"sequence": "QVQLVESGAGLVQAGGSLRLSCAASGFTFQNYAMGWYRQAPGKERELVAAIDSRGGRTYYADSVKGRFTISRDNAKNSVYLQMNSLKPEDTAVYYCAVAENKRFGSVGYYYWGQGTQVTVSS", "polyreactivity (PSR sort gate)": "low polyreactivity"}
{"sequence": "QVQLVESGAGLVQAGGSLRLSCAASGFTFRYYAMGWYRQAPGKERELVATISASSGSTYYADSVKGRFTISRDNAKNTVYLQMNSLKPEDTAVYYGAKEPLASGWGYDYWGQGTQVTVSS", "polyreactivity (PSR sort gate)": "high polyreactivity"}
{"sequence": "QVQLVESGAGLVQAGGSLRLSCAASGHTFYYNTMGLYRQAPGKERELVAVISWSGSRTYYADSVKGRFTISRDYAKNTVYLQMNSLKPEDTAVSYCNAVYSHRREYWGEGTQVTVSS", "polyreactivity (PSR sort gate)": "high polyreactivity"}
{"sequence": "QVQLVESGAGLVQAGGSLRLSCAASGITFAYYAMGWYRQAPGKERELVAAIRGGTNTYYADSVKGSYTISRDNAKNTVYFLMNSLKPEDTAVYYCAARRSSHWFTYDYWGQGTLVTVSS", "polyreactivity (PSR sort gate)": "high polyreactivity"}
